From paper PMC4701952, “Evolution of the Plant Reproduction Master Regulators LFY and the MADS Transcription Factors: The Role of Protein Structure in the Evolutionary Development of the Flower” (Frontiers in Plant Science, 2015)
“And” between values parts separate entries of the source, which are not always exact repeats. Identical values can stand only once.

What was measured:
[1] = target: the molecule itself; assay: native gel or EMSA; in vitro translated proteins (4 ul TnT mix, not purified) with 5-10 nM DY-682 labelled 121 bp SOC1 promoter DNA with two CArG boxes; complexes seen on DNA, assigned as putative dimer and tetramer
[2] = target: the molecule itself; assay: native gel or EMSA; in vitro translated proteins (not purified) with Cy5 labelled SOC1 promoter DNA in which CArG box 1 or CArG box 2 is mutated (one site left)
[3] = target: the molecule itself; assay: SEC; Superdex 200 10/300 GL in Buffer A (30 mM Tris pH 8.0, 300 mM NaCl, 5% glycerol, 2 mM TCEP); oligomeric state against the wild type protein; self-association

Protein | stoichiometry N [3] | binding result [3] | also measured
SEP3^ΔC (domain or fragment, A. thaliana, also called SEP3 truncation mutant; source: in vitro translated (pSPUTK, Promega SP6 High Yield Expression System), used without further purification) MGRGRVELKRIENKINRQVTFAKRRNGLLKKAYELSVLCDAEVALIIFSNRGKLYEFCSSSSMLRTLERYQKCNYGAPEPNVPSREALAVELSSQQEYLKLKERYDALQRTQRNLLGEDLGPLSTKELESLERQLDSSLKQIRALRTQFMLDQLNDLQSKLADG | – | – | stoichiometry N [1]: 2
SEP3^L115R (natural protein, A. thaliana, UniProt O22456 1-251, looked up, also called dimerisation-interface mutant; source: in vitro translated (pSPUTK, Promega SP6 High Yield Expression System), used without further purification) MGRGRVELKRIENKINRQVTFAKRRNGLLKKAYELSVLCDAEVALIIFSNRGKLYEFCSSSSMLRTLERYQKCNYGAPEPNVPSREALAVELSSQQEYLKLKERYDALQRTQRNRLGEDLGPLSTKELESLERQLDSSLKQIRALRTQFMLDQLNDLQSKERMLTETNKTLRLRLADGYQMPLQLNPNQEEVDHYGRHHHQQQQHSQAFFQPLECEPILQIGYQGQQDGMGAGPSVNNYMLGWLPYDTNSI | – | – | stoichiometry N [1]: 2
SEP3^L171A (natural protein, A. thaliana, UniProt O22456 1-251, looked up, also called tetramerisation interface mutant; source: in vitro translated (pSPUTK, Promega SP6 High Yield Expression System), used without further purification) MGRGRVELKRIENKINRQVTFAKRRNGLLKKAYELSVLCDAEVALIIFSNRGKLYEFCSSSSMLRTLERYQKCNYGAPEPNVPSREALAVELSSQQEYLKLKERYDALQRTQRNLLGEDLGPLSTKELESLERQLDSSLKQIRALRTQFMLDQLNDLQSKERMLTETNKTARLRLADGYQMPLQLNPNQEEVDHYGRHHHQQQQHSQAFFQPLECEPILQIGYQGQQDGMGAGPSVNNYMLGWLPYDTNSI | – | – | stoichiometry N [2]: 4
SEP3^(75-178) construct (wild type) (domain or fragment, A. thaliana, UniProt O22456 75-178, looked up, cloned into pESPRIT002 (N-terminal 6x-His tag followed by a TEV site); also called SEP3 K-domain; oligomerisation domain of SEP3; source: E. coli BL21 (DE3) CodonPlusRIL, purified (Ni-Sepharose, TEV cleavage, Superdex 200 SEC); not shown: His6, N-terminal, cleaved) YGAPEPNVPSREALAVELSSQQEYLKLKERYDALQRTQRNLLGEDLGPLSTKELESLERQLDSSLKQIRALRTQFMLDQLNDLQSKERMLTETNKTLRLRLADG | 4 and 2 | – | –
SEP3^(75-178) Y105N (domain or fragment, A. thaliana, UniProt O22456 75-178, looked up, made with SEP3^(75-178) as the template; source: E. coli Rosetta2 (DE3) pLysS, purified (Ni-Sepharose, TEV cleavage, Superdex 200 SEC); not shown: His6, N-terminal, cleaved) YGAPEPNVPSREALAVELSSQQEYLKLKERNDALQRTQRNLLGEDLGPLSTKELESLERQLDSSLKQIRALRTQFMLDQLNDLQSKERMLTETNKTLRLRLADG | 4 | – | –
SEP3^(75-178) L135M (domain or fragment, A. thaliana, UniProt O22456 75-178, looked up, made with SEP3^(75-178) as the template; source: E. coli Rosetta2 (DE3) pLysS, purified (Ni-Sepharose, TEV cleavage, Superdex 200 SEC); not shown: His6, N-terminal, cleaved) YGAPEPNVPSREALAVELSSQQEYLKLKERYDALQRTQRNLLGEDLGPLSTKELESLERQMDSSLKQIRALRTQFMLDQLNDLQSKERMLTETNKTLRLRLADG | 2 | – | –
SEP3^(75-178) L135A (domain or fragment, A. thaliana, UniProt O22456 75-178, looked up, made with SEP3^(75-178) as the template; source: E. coli Rosetta2 (DE3) pLysS, purified (Ni-Sepharose, TEV cleavage, Superdex 200 SEC); not shown: His6, N-terminal, cleaved) YGAPEPNVPSREALAVELSSQQEYLKLKERYDALQRTQRNLLGEDLGPLSTKELESLERQADSSLKQIRALRTQFMLDQLNDLQSKERMLTETNKTLRLRLADG | – | binds | –
SEP3^(75-178) L115R (domain or fragment, A. thaliana, UniProt O22456 75-178, looked up, made with SEP3^(75-178) as the template; source: E. coli Rosetta2 (DE3) pLysS, purified (Ni-Sepharose, TEV cleavage, Superdex 200 SEC); not shown: His6, N-terminal, cleaved) YGAPEPNVPSREALAVELSSQQEYLKLKERYDALQRTQRNRLGEDLGPLSTKELESLERQLDSSLKQIRALRTQFMLDQLNDLQSKERMLTETNKTLRLRLADG | – | binds | –
SEP3^(75-178) L131V (domain or fragment, A. thaliana, UniProt O22456 75-178, looked up, made with SEP3^(75-178) as the template; source: E. coli Rosetta2 (DE3) pLysS, purified (Ni-Sepharose, TEV cleavage, Superdex 200 SEC); not shown: His6, N-terminal, cleaved) YGAPEPNVPSREALAVELSSQQEYLKLKERYDALQRTQRNLLGEDLGPLSTKELESVERQLDSSLKQIRALRTQFMLDQLNDLQSKERMLTETNKTLRLRLADG | – | binds | –
SEP3^(75-178) Y98K (domain or fragment, A. thaliana, UniProt O22456 75-178, looked up, made with SEP3^(75-178) as the template; source: E. coli Rosetta2 (DE3) pLysS, purified (Ni-Sepharose, TEV cleavage, Superdex 200 SEC); not shown: His6, N-terminal, cleaved) YGAPEPNVPSREALAVELSSQQEKLKLKERYDALQRTQRNLLGEDLGPLSTKELESLERQLDSSLKQIRALRTQFMLDQLNDLQSKERMLTETNKTLRLRLADG | 2 | – | –
